Molecular target: T1, Rubisco L8S8 hexadecamer (Form IB ribulose 1,5-bisphosphate carboxylase/oxygenase) of Synechococcus elongatus … (Synechococcus elongatus PCC7942 …, UniProt Q31NB3 1-472; Q31NB2 1-111)
T1 construct: RbcL, Rubisco large subunit, Synechococcus elongatus PCC7942; printed MW 52.4 kDa; RbcS, Rubisco small subunit, Synechococcus elongatus PCC7942; printed MW 13.3 kDa; Native holoenzyme imaged inside isolated β-carboxysomes; never isolated on its own; also called Rubisco complex; Rubisco holoenzyme; source: endogenous, inside β-carboxysomes purified from Syn7942 (sucrose gradient …)
T1 sequence (Q31NB2 whole entry, chain 2 of 2, other chains not shown): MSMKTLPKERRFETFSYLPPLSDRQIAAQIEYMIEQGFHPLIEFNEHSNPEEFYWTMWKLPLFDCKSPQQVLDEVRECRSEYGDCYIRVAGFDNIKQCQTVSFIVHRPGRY
Experiment: cryo-EM structure; cryo-electron tomography and subtomogram averaging (emClarity) of Rubisco inside intact β-carboxysomes isolated from Syn7942 grown under low light; 185 carboxysomes; D4 symmetry applied; 3.5 Å
Conditions: partners not purified

B1: CcmM, Rubisco-scaffolding linker protein of the Syn7942 β-carboxysome (natural protein, UniProt Q03513-2 1-324, looked up)
chain: MSAYNGQGRLSSEVITQVRSLLNQGYRIGTEHADKRRFRTSSWQPCAPIQSTNERQVLSELENCLSEHEGEYVRLLGIDTNTRSRVFEALIQRPDGSVPESLGSQPVAVASGGGRQSSYASVSGNLSAEVVNKVRNLLAQGYRIGTEHADKRRFRTSSWQSCAPIQSSNERQVLAELENCLSEHEGEYVRLLGIDTASRSRVFEALIQDPQGPVGSAKAAAAPVSSATPSSHSYTSNGSSSSDVAGQVRGLLAQGYRISAEVADKRRFQTSSWQSLPALSGQSEATVLPALESILQEHKGKYVRLIGIDPAARRRVAELLIQKP
notes: CcmM, Synechococcus elongatus PCC7942; Mixture of CcmM58 and CcmM35 in the native carboxysome; only an SSUL module is resolved; also called CcmM SSUL; CcmM58; source: endogenous, inside β-carboxysomes purified from Syn7942 (sucrose gradient ultracentrifugation)
stoichiometry N: 4 SSUL domains per Rubisco

Source: article doi:10.1101/2024.09.20.614183, “Rubisco packaging and stoichiometric composition of a native β-carboxysome” (bioRxiv, 2024)
